# Experimental data taken from patent US20050142135A1 (UNIVERSITY OF KENTUCKY RESEARCH FOUNDATION, published 2005).
# Positions count from the first letter of the chain named. Numbers in names are those of the source.
# B1: FSHR^K590F (receptor)
# chain: CHHRICHCSNRVFLCQESKVTEIPSDLPRNAIELRFVLTKLRVIQKGAFSGFGDLEKIEISQNDVLEVIEADVFSNLPKLHEIRIEKANNLLYINPEAFQNLPNLQYLLISNTGIKHLPDVHKIHSLQKVLLDIQDNINIHTIERNSFVGLSFESVILWLNKNGIQEIHNCAFNGTQLDELNLSDNNNLEELPNDVFHGASGPVILDISRTRIHSLPSYGLENLKKLRARSTYNLKKLPTLEKLVALMEASLTYPSHCCAFANWRRQISELHPICNKSILRQEVDYMTQARGQRSSLAEDNESSYSRGFDMTYTEFDYDLCNEVVDVTCSPKPDAFNPCEDIMGYNILRVLIWFISILAITGNIIVLVILTTSQYKLTVPRFLMCNLAFADLCIGIYLLLIASVDIHTKSQYHNYAIDWQTGAGCDAAGFFTVFASELSVYTLTAITLERWHTITHAMQLDCKVQLRHAASVMVMGWIFAFAAALFPIFGISSYMKVSICLPMDIDSPLSQLYVMSLLVLNVLAFVVICGCYIHIYLTVRNPNIVSSSSDTRIAKRMAMLIFTDFLCMAPISFFAISASLKVPLITVSKAFILLVLFHPINSCANPFLYAIFTKNFRRDFFILLSKCGCYEMQAQIYRTETSSTVHNTHPRNGHCSSAPRVTSGSTYILVPLSHLAQN
# B2: FSHR^K590L (receptor)
# chain: B1 chain with F591L
# B3: hCG (ligand)
# chain 1: not shown
# chain 2: SKEPLRPRCRPINATLAVEKEGCPVCITVNTTICAGYCPTMTRVLQGVLPALPQVVCNYRDVRFESIRLPGCPRGVNPVVSYAVALSCQCALCRRSTTDCGGPKDHPLTCDDPRFQDSSSSKAPPPSLPSPSRLPGPSDTPILPQ
# notes: purchased from the National Hormone and Pituitary Program; also called human chorionic gonadotropin
# Experiments:
# [1] = molecular target: T1, human FSH (human, UniProt P01215 25-116; P01225 19-129); assay: 125I-FSH competition binding on HEK293 cells, Scatchard
# T1 construct: heterodimer, purchased from the National Hormone and Pituitary Program; also called follicle stimulating hormone
# Experimental: The Kd values were determined by Scatchard plots. Truncated exodomain was solubilized in Nonidet P-40 and assayed for hormone binding as described previously. For intracellular cAMP assay, cells were washed twice with Dulbecco's modified Eagle's media and incubated in the media containing isobutylmethylxanthine (0.1 mg/ml) for 15 minutes. […] After removing the media, the cells were rinsed once with fresh media without isobutylmethylxanthine, lysed in 70% ethanol, freeze-thawed in liquid nitrogen, and scraped. After pelleting cell debris at 16,000×g for 10 minutes at 4° C., the supernatant was collected, dried under vacuum and resuspended in 10 μl of the cAMP assay buffer, which was provided by the manufacturer. cAMP concentrations were determined with an ¹²⁵I-cAMP assay kit (Amersham) following the manufacturer's instruction and validated for use in our laboratory. Exoloop 3 of FSHR was modeled based on the crystal structure of rhodopsin as a template.
# [2] = molecular target: T2, human LH receptor, wild type (human, UniProt P22888 27-699); assay: competition of 125I-hCG binding to cells expressing LHR
# T2 construct: whole, on cells; stably expressed in HEK 293 cells; This holds for all LHR mutants and LHR peptides below; also called LH/CG receptor
# T2 sequence (P22888 27-699): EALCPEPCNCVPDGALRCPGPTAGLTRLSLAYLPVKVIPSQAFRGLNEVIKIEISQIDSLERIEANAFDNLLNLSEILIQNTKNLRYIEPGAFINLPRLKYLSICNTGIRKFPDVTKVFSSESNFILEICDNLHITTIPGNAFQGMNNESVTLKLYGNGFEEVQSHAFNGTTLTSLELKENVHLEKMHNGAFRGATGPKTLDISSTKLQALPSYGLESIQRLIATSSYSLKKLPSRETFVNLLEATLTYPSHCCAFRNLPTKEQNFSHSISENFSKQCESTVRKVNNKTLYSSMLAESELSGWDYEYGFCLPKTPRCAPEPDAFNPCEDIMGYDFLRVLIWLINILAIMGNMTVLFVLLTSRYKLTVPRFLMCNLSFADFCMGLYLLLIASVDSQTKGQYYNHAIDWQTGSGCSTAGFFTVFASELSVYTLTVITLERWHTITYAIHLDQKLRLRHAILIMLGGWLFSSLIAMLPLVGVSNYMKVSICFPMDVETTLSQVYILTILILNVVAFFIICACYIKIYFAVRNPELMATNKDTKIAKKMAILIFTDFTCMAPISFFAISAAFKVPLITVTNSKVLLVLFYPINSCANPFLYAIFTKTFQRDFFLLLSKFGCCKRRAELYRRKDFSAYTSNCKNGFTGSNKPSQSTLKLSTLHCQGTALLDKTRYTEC
# Experimental: The Kd values were determined by Scatchard plots. For intracellular cAMP assay, cells were washed twice with Dulbecco's modified Eagle's media and incubated in the media containing isobutylmethylxanthine (0.1 mg/ml) for 15 minutes. Increasing concentrations of hormone were then added and the incubation was continued for 45 minutes at 37° C. After removing the media, the cells were rinsed once with fresh media without isobutylmethylxanthine, lysed in 70% ethanol, freeze-thawed in liquid nitrogen, and scraped.
Binder,Kd [1] [nM],potency relative to LHR^exo3 in inhibiting ^125I-hCG binding to LHR [2] [fold]
B1,50,
B2,7.2,
B3,,> 10000
